What was measured:
[1] = target: Rim1-C-terminal 6xHis (yeast); assay: cross-linking; SDA (NHS-diazirine) 50 uM, 3 uM Rim1 tetramer, 25 mM HEPES, 100 mM NaCl, 10% glycerol, pH 7.5, NHS step 25 °C 30 min, then UV 365 nm; SDS-PAGE; bands analysed by nanoLC-LTQ-Orbitrap MS (XLPM)
[2] = target: Rim1-C-terminal 6xHis (yeast); assay: cross-linking; DSS 2.5 mM, 3 uM Rim1 tetramer, 25 mM HEPES, 100 mM NaCl, 10% glycerol, pH 7.5, room temperature 40 min; products resolved on 5-15% SDS-PAGE; bands digested and analysed by nanoLC-LTQ-Orbitrap MS (XLPM, StavroX)

- stoichiometry N [1]: 4
- stoichiometry N [2]: 4
Substance: Rim1-C-terminal 6xHis (natural protein)
